The values below come from publication PMC7658359 (2020).

Some targets named below: OsChz1-C mutant 1M (rice (Oryza sativa)); OsChz1-C mutant 2M (rice (Oryza sativa)); OsChz1-C mutant 3M (rice (Oryza sativa)).
Assay in all cases: ITC

B1: Arabidopsis histone H2A (HTA1)-H2B (HTB1) dimer (complex)
chain 1: MAGRGKTLGSGGAKKATSRSSKAGLQFPVGRIARFLKAGKYAERVGAGAPVYLAAVLEYLAAEVLELAGNAARDNKKTRIVPRHIQLAVRNDEELSKLLGDVTIANGGVMPNIHNLLLPKKAGASKPQED
chain 2: MAPRAEKKPAEKKTAAERPVEENKAAEKAPAEKKPKAGKKLPPKEAGDKKKKRSKKNVETYKIYIFKVLKQVHPDIGISSKAMGIMNSFINDIFEKLAQESSKLARYNKKPTITSREIQTAVRLVLPGELAKHAVSEGTKAVTKFTSS
The Kd is the free concentration of one partner at which half of the binding sites on the other are occupied at equilibrium, for simple one-to-one binding. In the case of B1, the equilibrium dissociation constant (Kd) turned out to be 150 nM with OsChz1-C mutant 1M, 259 nM in the experiment with OsChz1-C mutant 2M and 146 nM with OsChz1-C mutant 3M.
